Reference: patent US20260125451A1 (JIANGSU HENGRUI PHARMACEUTICALS, published 2026)
Like-named read-outs stand apart in the source and are kept apart here.

T1: APRIL (Acro Biosystems, Cat: APL-H52D1) (UniProt O75888 115-250, limits assumed)
T1 construct: also called ARPIL; A proliferation-inducing ligand
T1 sequence (looked up): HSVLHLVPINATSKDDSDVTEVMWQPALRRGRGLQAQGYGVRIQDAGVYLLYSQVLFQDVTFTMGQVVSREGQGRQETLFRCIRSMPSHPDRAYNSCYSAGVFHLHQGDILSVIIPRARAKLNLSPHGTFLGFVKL

T2: type I interferon (IFN) receptor subunit 1 (IFNAR1) (human, UniProt P17181 28-557)
T2 sequence (looked up): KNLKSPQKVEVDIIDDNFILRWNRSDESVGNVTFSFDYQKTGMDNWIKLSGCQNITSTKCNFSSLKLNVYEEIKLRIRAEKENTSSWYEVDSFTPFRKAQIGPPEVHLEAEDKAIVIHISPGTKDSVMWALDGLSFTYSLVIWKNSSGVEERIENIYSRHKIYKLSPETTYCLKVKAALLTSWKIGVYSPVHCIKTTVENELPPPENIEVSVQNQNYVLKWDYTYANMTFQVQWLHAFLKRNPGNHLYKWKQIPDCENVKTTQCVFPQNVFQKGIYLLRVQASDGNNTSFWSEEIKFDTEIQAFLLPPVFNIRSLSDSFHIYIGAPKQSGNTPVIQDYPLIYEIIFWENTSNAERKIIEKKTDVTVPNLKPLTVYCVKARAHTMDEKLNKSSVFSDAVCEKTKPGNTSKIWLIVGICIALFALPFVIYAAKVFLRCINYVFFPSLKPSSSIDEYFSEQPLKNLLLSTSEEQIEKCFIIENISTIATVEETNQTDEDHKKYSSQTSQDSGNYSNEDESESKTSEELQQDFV

T3: recombinant human ARPIL (R&D cat: 5860-AP-010/CF) (human, UniProt O75888 105-250, limits assumed)
T3 sequence (looked up): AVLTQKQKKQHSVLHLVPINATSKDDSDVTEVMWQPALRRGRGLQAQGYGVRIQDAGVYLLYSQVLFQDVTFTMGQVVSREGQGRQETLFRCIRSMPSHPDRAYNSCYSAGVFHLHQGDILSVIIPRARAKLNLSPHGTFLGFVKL


Assays:
[1] = target: T1, APRIL (Acro Biosystems, Cat: APL-H52D1); assay: ELISA, APRIL coated, anti-human Fc-HRP, OD450
Procedure: The capabilities of fusion proteins B606401, B637302, B746201, and B805201 to bind to BAFF and APRIL were assessed by ELISA as follows:
(§1) BAFF (PeproTech, Cat: 310-13) or ARPIL (Acro Biosystems, Cat: APL-H52D1) was diluted to 1 μg/mL with PBS, and a 96-well plate was coated with the dilution overnight at 4° C. The plate was washed with PBST and blocked with Blocking Buffer (PBST containing 1% BSA) at 37° C. for 1 h. The plate was tapped. The test antibodies were diluted with Blocking Buffer. Incubation was performed at 37° C. for 1.5 h. The plate was washed with PBST. An HRP-mouse anti-human Fc antibody (GenScript, Cat: A01854-200) was diluted with Blocking Buffer. Incubation was performed at 37° C. for 40 min. The plate was washed with PBST. 100 μL of TMB substrate solution (Biopanda, Cat: TMB-S-003) was added, and color development was performed at 37° C. for 3 min. 100 μL of ELISA stop solution (Solarbio, Cat: C1058) was added. OD450 was measured.
The EC₅₀ value for the capability of B637302 to bind to APRIL decreased to 1/7 to ⅙ of that of telitacicept.

[2] = target: T2, type I interferon (IFN) receptor …; assay: cell-based or functional assay
[3] = target: T2, type I interferon (IFN) receptor …; assay: cell-based or functional assay; remark: listed apart in the source
[4] = target: recombinant human BAFF (R&D cat: 7537-BF-025/CF) (human, UniProt Q9Y275 134-285, limits assumed); assay: cell-based or functional assay
[5] = target: T3, recombinant human ARPIL (R&D cat: …); assay: cell-based or functional assay
[6] = target: T1, APRIL (Acro Biosystems, Cat: APL-H52D1); assay: ELISA, APRIL coated, anti-human Fc-HRP, OD450; remark: listed apart in the source
Procedure: The capabilities of B613301, B613302, and B613303, which are fusion proteins of anifrolumab and TACI-BCMA, to bind to BAFF and APRIL were assessed by ELISA as follows:
as §1, with “96-well plate (Costar, Cat: 3590) was coated” for “96-well plate was coated”

Emax [1] [nM] | IC50, inhibition of IFN-α-induced in vitro differentiation of B cells into plasma cells [2] [nM] | IC50 (nM), inhibition of the activity of type I interferons (IFN-β, HEK-Blue IFN-α/β cells) [3] [nM] | Flow cytometry proliferating B cell proportion (%), mean, BAFF-induced, drug at 10 nM [4] [%] | Flow cytometry proliferating B cell proportion (%), mean, BAFF-induced, drug at 100 nM [4] [%] | Flow cytometry proliferating B cell proportion (%), mean, BAFF-induced, drug at 1000 nM [4] [%] | Flow cytometry proliferating B cell proportion (%), mean, APRIL-induced, drug at 4.12 nM [5] [%] | Flow cytometry proliferating B cell proportion (%), mean, APRIL-induced, drug at 12.35 nM [5] [%] | Flow cytometry proliferating B cell proportion (%), mean, APRIL-induced, drug at 37.04 nM [5] [%] | Flow cytometry proliferating B cell proportion (%), mean, APRIL-induced, drug at 111.11 nM [5] [%] | Flow cytometry proliferating B cell proportion (%), mean, APRIL-induced, drug at 333.33 nM [5] [%] | Flow cytometry proliferating B cell proportion (%), mean, APRIL-induced, drug at 1000.00 nM [5] [%] | Emax [6] [nM] | Binder
2.9 | 10.8 | 1.59 | 23.8 | 22.2 | 10.9 | 50.6 | 50.7 | 53.6 | 51.5 | 48 | 33.6 | – | B637302 (other, Fusion protein of anifrolumab, TACI-19-16 and BCMA-ECD-2) heavy: EVQLVQSGAEVKKPGESLKISCKGSGYIFTNYWIAWVRQMPGKGLESMGIIYPGDSDIRYSPSFQGQVTISADKSITTAYLQWSSLKASDTAMYYCARHDIEGFDYWGRGTLVTVSSASTKGPSVFPLAPSSKSTSGGTAALGCLVKDYFPEPVTVSWNSGALTSGVHTFPAVLQSSGLYSLSSVVTVPSSSLGTQTYICNVNHKPSNTKVDKRVEPKSCDKTHTCPPCPAPEFEGGPSVFLFPPKPKDTLMISRTPEVTCVVVDVSHEDPEVKFNWYVDGVEVHNAKTKPREEQYNSTYRVVSVLTVLHQDWLNGKEYKCKVSNKALPASIEKTISKAKGQPREPQVYTLPPSRDELTKNQVSLTCLVKGFYPSDIAVEWESNGQPENNYKTTPPVLDSDGSFFLYSKLTVDKSRWQQGNVFSCSVMHEALHNHYTQKSLSLSPGK light: EIVLTQSPGTLSLSPGERATLSCRASQSVSSSFFAWYQQKPGQAPRLLIYGASSRATGIPDRLSGSGSGTDFTLTITRLEPEDFAVYYCQQYDSSAITFGQGTRLEIKRTVAAPSVFIFPPSDEQLKSGTASVVCLLNNFYPREAKVQWKVDNALQSGNSQESVTEQDSKDSTYSLSSTLTLSKADYEKHKVYACEVTHQGLSSPVTKSFNRGECGGGGSGGGGSMLQMAGQCSQNEYFDSLLHACIPCQLRCSSNTPPLTCQRYCSTSCREEQGEFYDHLLRDCISCASICGQHPKQCAAFCE
– | 12.7 | 1.53 | – | – | – | – | – | – | – | – | – | – | Anifrolumab (antibody, human IgG1, kappa, V domains shown) VH: EVQLVQSGAEVKKPGESLKISCKGSGYIFTNYWIAWVRQMPGKGLESMGIIYPGDSDIRYSPSFQGQVTISADKSITTAYLQWSSLKASDTAMYYCARHDIEGFDYWGRGTLVTVSS VL: EIVLTQSPGTLSLSPGERATLSCRASQSVSSSFFAWYQQKPGQAPRLLIYGASSRATGIPDRLSGSGSGTDFTLTITRLEPEDFAVYYCQQYDSSAITFGQGTRLEIKR

The remaining lines, values behind:

Binder | Emax [1] [nM] | IC50, inhibition of IFN-α-induced in vitro differentiation of B cells into plasma cells [2] [nM] | IC50 (nM), inhibition of the activity of type I interferons (IFN-β, HEK-Blue IFN-α/β cells) [3] [nM] | Flow cytometry proliferating B cell proportion (%), mean, BAFF-induced, drug at 10 nM [4] [%] | Flow cytometry proliferating B cell proportion (%), mean, BAFF-induced, drug at 100 nM [4] [%] | Flow cytometry proliferating B cell proportion (%), mean, BAFF-induced, drug at 1000 nM [4] [%] | Flow cytometry proliferating B cell proportion (%), mean, APRIL-induced, drug at 4.12 nM [5] [%] | Flow cytometry proliferating B cell proportion (%), mean, APRIL-induced, drug at 12.35 nM [5] [%] | Flow cytometry proliferating B cell proportion (%), mean, APRIL-induced, drug at 37.04 nM [5] [%] | Flow cytometry proliferating B cell proportion (%), mean, APRIL-induced, drug at 111.11 nM [5] [%] | Flow cytometry proliferating B cell proportion (%), mean, APRIL-induced, drug at 333.33 nM [5] [%] | Flow cytometry proliferating B cell proportion (%), mean, APRIL-induced, drug at 1000.00 nM [5] [%] | Emax [6] [nM]
B613303 (other, Fusion protein of anifrolumab and TACI-BCMA) heavy: EVQLVQSGAEVKKPGESLKISCKGSGYIFTNYWIAWVRQMPGKGLESMGIIYPGDSDIRYSPSFQGQVTISADKSITTAYLQWSSLKASDTAMYYCARHDIEGFDYWGRGTLVTVSSASTKGPSVFPLAPSSKSTSGGTAALGCLVKDYFPEPVTVSWNSGALTSGVHTFPAVLQSSGLYSLSSVVTVPSSSLGTQTYICNVNHKPSNTKVDKRVEPKSCDKTHTCPPCPAPEFEGGPSVFLFPPKPKDTLMISRTPEVTCVVVDVSHEDPEVKFNWYVDGVEVHNAKTKPREEQYNSTYRVVSVLTVLHQDWLNGKEYKCKVSNKALPASIEKTISKAKGQPREPQVYTLPPSRDELTKNQVSLTCLVKGFYPSDIAVEWESNGQPENNYKTTPPVLDSDGSFFLYSKLTVDKSRWQQGNVFSCSVMHEALHNHYTQKSLSLSPGK light: EIVLTQSPGTLSLSPGERATLSCRASQSVSSSFFAWYQQKPGQAPRLLIYGASSRATGIPDRLSGSGSGTDFTLTITRLEPEDFAVYYCQQYDSSAITFGQGTRLEIKRTVAAPSVFIFPPSDEQLKSGTASVVCLLNNFYPREAKVQWKVDNALQSGNSQESVTEQDSKDSTYSLSSTLTLSKADYEKHKVYACEVTHQGLSSPVTKSFNRGECGGGGSGGGGSSRVDQEERFPQGLWTGVAMRSCPEEQYWDPLLGTCMSCKTICNHQSQRTCAAFCRSLSCRKEQGKFYDHLLRDCISCASICGQHPKQCAYFCENKLRSPVNLPPELMLQMAGQCSQNEYFDSLLHACIPCQLRCSSNTPPLTCQRYCNASVTNSVKGTNA | – | – | – | – | – | – | – | – | – | – | – | – | 2.33
B606401 (other, Anifrolumab with TACI-19-16 at the C-terminus of the light chain) heavy: EVQLVQSGAEVKKPGESLKISCKGSGYIFTNYWIAWVRQMPGKGLESMGIIYPGDSDIRYSPSFQGQVTISADKSITTAYLQWSSLKASDTAMYYCARHDIEGFDYWGRGTLVTVSSASTKGPSVFPLAPSSKSTSGGTAALGCLVKDYFPEPVTVSWNSGALTSGVHTFPAVLQSSGLYSLSSVVTVPSSSLGTQTYICNVNHKPSNTKVDKRVEPKSCDKTHTCPPCPAPEFEGGPSVFLFPPKPKDTLMISRTPEVTCVVVDVSHEDPEVKFNWYVDGVEVHNAKTKPREEQYNSTYRVVSVLTVLHQDWLNGKEYKCKVSNKALPASIEKTISKAKGQPREPQVYTLPPSRDELTKNQVSLTCLVKGFYPSDIAVEWESNGQPENNYKTTPPVLDSDGSFFLYSKLTVDKSRWQQGNVFSCSVMHEALHNHYTQKSLSLSPGK light: EIVLTQSPGTLSLSPGERATLSCRASQSVSSSFFAWYQQKPGQAPRLLIYGASSRATGIPDRLSGSGSGTDFTLTITRLEPEDFAVYYCQQYDSSAITFGQGTRLEIKRTVAAPSVFIFPPSDEQLKSGTASVVCLLNNFYPREAKVQWKVDNALQSGNSQESVTEQDSKDSTYSLSSTLTLSKADYEKHKVYACEVTHQGLSSPVTKSFNRGECGGGGSGGGGSSTSCREEQGEFYDHLLRDCISCASICGQHPKQCAAFCE | 2.81 | 17.4 | 1.94 | 28.1 | 25.3 | 17.9 | 52 | 52.9 | 53.6 | 53.1 | 50.6 | 40.3 | –
